Laboratory results reported in the Human Domainome abundance scans (Beltran et al. 2025).
± gives the uncertainty stated by the source.

B1: GAS2-like protein 1, residues 209 to 276; numbered along this chain, Q99501 (parent)
chain: DELVREILGRCTCPDQFPMIKVSEGKYRVGDSSLLIFVRVLRSHVMVRVGGGWDTLEHYLDKHDPCRC

Variants of: B1
Assay: abundance fitness (aPCA) (normalised: wild type 0, dead -1); higher = more abundant; growth selection in yeast, the domain comes from the species named
Details: Homo sapiens

Abundance fitness, by site and new letter:
D31: M -0.148 ± 0.057 | Y -0.181 ± 0.065 | V -0.146 ± 0.042 | L -0.141 ± 0.047 | W -0.153 ± 0.11 | K -0.162 ± 0.062 | E 0.007 ± 0.061 | G -0.066 ± 0.04 | P -0.066 ± 0.09 | H 0.039 ± 0.1 | C -0.146 ± 0.074 | F -0.303 ± 0.21 | T 0.059 ± 0.05 | N 0.084 ± 0.064 | R -0.087 ± 0.06 | Q 0.048 ± 0.098 | A -0.06 ± 0.046 | I -0.144 ± 0.06 | S -0.07 ± 0.049
V29: E -0.978 ± 0.26 | G -0.807 ± 0.097 | R -0.305 ± 0.073 | T -0.531 ± 0.07 | A -0.34 ± 0.07 | C -0.213 ± 0.077 | P -0.985 ± 0.15 | K -0.855 ± 0.19 | F -0.163 ± 0.061 | H -0.188 ± 0.16 | S -0.422 ± 0.09 | Y -0.489 ± 0.18 | I 0.129 ± 0.047 | Q -0.501 ± 0.081 | N -0.793 ± 0.33 | M -0.187 ± 0.05 | W -0.551 ± 0.089
V22: T -0.662 ± 0.17 | D -0.327 ± 0.28 | M -0.251 ± 0.071 | S -0.848 ± 0.098 | G -0.916 ± 0.39 | A -0.311 ± 0.34 | I -0.035 ± 0.081 | H -0.26 ± 0.12 | C -0.365 ± 0.099 | P -0.971 ± 0.29 | R -0.428 ± 0.073 | L -0.323 ± 0.055 | Y -0.795 ± 0.14 | F -0.518 ± 0.13
P14: N -0.424 ± 0.12 | C -0.439 ± 0.11 | W -0.816 ± 0.12 | S -0.162 ± 0.049 | T -0.136 ± 0.053 | Q -0.161 ± 0.074 | A -0.142 ± 0.063 | M -0.457 ± 0.076 | R -0.147 ± 0.045 | K 0.016 ± 0.056 | I -0.336 ± 0.073 | V -0.213 ± 0.05 | G -0.502 ± 0.079 | F -0.509 ± 0.17
K26: G -0.589 ± 0.2 | Q 0.237 ± 0.12 | H -0.035 ± 0.15 | S -0.075 ± 0.092 | V 0.177 ± 0.065 | L -0.145 ± 0.11 | E -0.418 ± 0.17 | W 0.132 ± 0.077 | N -0.317 ± 0.092 | F -0.013 ± 0.14 | R 0 ± 0.094 | T 0.149 ± 0.067 | C 0.204 ± 0.18 | A -0.063 ± 0.16 | M -0.213 ± 0.17
G30: M -0.432 ± 0.069 | T -0.569 ± 0.072 | K -0.371 ± 0.085 | A -0.35 ± 0.054 | F -0.927 ± 0.19 | I -0.803 ± 0.21 | P -0.506 ± 0.088 | N -0.526 ± 0.15 | S -0.53 ± 0.058 | R -0.302 ± 0.049 | C -0.532 ± 0.2 | E -0.862 ± 0.12 | H -0.653 ± 0.13 | L -0.605 ± 0.068 | Q -0.603 ± 0.12 | V -0.646 ± 0.08 | D -0.337 ± 0.084 | W -0.952 ± 0.19
G25: Q -0.13 ± 0.08 | E -0.345 ± 0.079 | I -1.07 ± 0.18 | V -0.961 ± 0.18 | K -0.739 ± 0.25 | Y -0.388 ± 0.11 | D -0.07 ± 0.082 | L -0.914 ± 0.091 | P -0.809 ± 0.19 | F -0.366 ± 0.098 | N -0.116 ± 0.11 | C -0.236 ± 0.098 | W -0.58 ± 0.048 | S -0.158 ± 0.041 | R -0.328 ± 0.048
D15: P -0.964 ± 0.21 | Q -0.002 ± 0.081 | V 0.054 ± 0.04 | E 0.101 ± 0.052 | S 0.026 ± 0.039 | Y -0.151 ± 0.052 | H 0.017 ± 0.082 | R 0.018 ± 0.038 | A 0.04 ± 0.044 | N 0.087 ± 0.077 | T 0.125 ± 0.059 | K 0.034 ± 0.053 | I 0.014 ± 0.058 | F -0.259 ± 0.06 | G -0.379 ± 0.1 | W -0.32 ± 0.069 | M 0.046 ± 0.05 | C -0.188 ± 0.045 | L -0.058 ± 0.034
M19: P -1.05 ± 0.26 | G -0.845 ± 0.17 | A -0.539 ± 0.061 | Q -0.961 ± 0.25 | W -0.121 ± 0.079 | L -0.011 ± 0.044 | K -0.527 ± 0.27 | I -0.345 ± 0.083 | S -0.895 ± 0.13 | N -0.74 ± 0.3 | R -0.516 ± 0.081 | E -1.02 ± 0.36 | T -0.96 ± 0.17 | C -0.664 ± 0.24 | F 0.171 ± 0.071 | H -0.429 ± 0.13 | D -1.18 ± 0.33
Q16: V -0.269 ± 0.043 | E -0.42 ± 0.12 | T -0.11 ± 0.044 | H -0.486 ± 0.095 | M -0.276 ± 0.048 | I -0.351 ± 0.077 | F -0.623 ± 0.16 | G -0.131 ± 0.046 | S -0.172 ± 0.041 | A -0.224 ± 0.053 | N -0.634 ± 0.12 | P 0.131 ± 0.047 | K 0.113 ± 0.047 | Y -0.848 ± 0.11
P18: K 0.026 ± 0.063 | L -0.471 ± 0.054 | N -0.15 ± 0.079 | E -0.132 ± 0.066 | S -0.043 ± 0.045 | H -0.222 ± 0.09 | D -0.207 ± 0.064 | M -0.501 ± 0.085 | F -0.645 ± 0.16 | I -0.524 ± 0.1 | W -0.809 ± 0.12 | R -0.012 ± 0.033 | Q 0.011 ± 0.072 | C -0.512 ± 0.082 | G -0.475 ± 0.058 | Y -0.669 ± 0.14
I20: H 0.167 ± 0.12 | Q 0.026 ± 0.1 | W 0.008 ± 0.06 | F -0.096 ± 0.069 | S -0.207 ± 0.064 | N -0.111 ± 0.16 | G -0.498 ± 0.073 | R -0.009 ± 0.046 | Y 0.054 ± 0.054 | E -0.016 ± 0.087 | K -0.037 ± 0.2 | A -0.216 ± 0.08 | V -0.021 ± 0.052 | P -0.917 ± 0.25 | L -0.151 ± 0.06 | C -0.366 ± 0.1
S32: H -0.16 ± 0.074 | K -0.175 ± 0.053 | E 0.013 ± 0.056 | F -0.749 ± 0.11 | R -0.142 ± 0.04 | V -0.596 ± 0.073 | D 0.098 ± 0.053 | P -0.121 ± 0.056 | I -0.755 ± 0.16 | T -0.026 ± 0.063 | Q -0.044 ± 0.061 | A -0.064 ± 0.046 | N -0.071 ± 0.05 | G -0.085 ± 0.047 | M -0.252 ± 0.06 | W -0.892 ± 0.19
T12: H -0.542 ± 0.13 | W -0.831 ± 0.2 | N -0.355 ± 0.11 | M -0.419 ± 0.098 | Q -0.193 ± 0.077 | Y -0.8 ± 0.19 | I -0.313 ± 0.069 | L -0.664 ± 0.058 | D -0.797 ± 0.15 | C -0.247 ± 0.047 | E -0.381 ± 0.063 | S -0.181 ± 0.043 | P -0.749 ± 0.14 | K -0.169 ± 0.1 | V -0.267 ± 0.041
F17: S -0.925 ± 0.12 | M -0.777 ± 0.16 | W -0.741 ± 0.096 | Y 0.098 ± 0.088 | R -0.865 ± 0.1 | Q -0.88 ± 0.18 | L -0.667 ± 0.049 | K -0.831 ± 0.13 | A -0.955 ± 0.15 | C -1 ± 0.23 | I -0.846 ± 0.19 | G -0.743 ± 0.08 | V -0.768 ± 0.082 | T -0.858 ± 0.11
K21: Q -0.254 ± 0.076 | V -0.791 ± 0.087 | L -0.541 ± 0.062 | G -0.689 ± 0.077 | T -0.739 ± 0.11 | H -0.426 ± 0.085 | C -0.543 ± 0.21 | P -0.646 ± 0.1 | I -0.981 ± 0.27 | E -0.396 ± 0.1 | W -0.397 ± 0.08 | R 0.01 ± 0.036 | S -0.747 ± 0.088 | D -0.804 ± 0.2 | A -0.748 ± 0.14 | M -0.297 ± 0.087 | Y -0.525 ± 0.12 | N -0.828 ± 0.24
S23: V -0.674 ± 0.073 | F -0.83 ± 0.24 | W -0.53 ± 0.11 | L -0.809 ± 0.079 | I -0.861 ± 0.2 | T -0.036 ± 0.057 | H -0.325 ± 0.058 | K -0.336 ± 0.079 | P -0.914 ± 0.12 | E 0.099 ± 0.062 | N -0.483 ± 0.15 | G 0.013 ± 0.045 | Q -0.141 ± 0.089 | C -0.031 ± 0.088 | M -0.47 ± 0.064 | A -0.023 ± 0.048 | R -0.359 ± 0.062 | D 0.028 ± 0.05
R28: Y -0.341 ± 0.068 | E -0.516 ± 0.063 | K -0.07 ± 0.044 | L -0.05 ± 0.04 | F -0.668 ± 0.14 | A -0.235 ± 0.053 | N -0.857 ± 0.18 | T -0.467 ± 0.1 | G -0.944 ± 0.14 | C -0.159 ± 0.091 | V -0.15 ± 0.048 | H -0.549 ± 0.13 | Q -0.265 ± 0.12 | I -0.208 ± 0.068 | M 0.041 ± 0.061 | W -0.403 ± 0.079 | P -0.964 ± 0.18
C13: D -0.752 ± 0.12 | Y -0.744 ± 0.14 | A -0.974 ± 0.19 | F -0.894 ± 0.13 | I -0.304 ± 0.1 | W -0.922 ± 0.12 | V -0.306 ± 0.074 | K -1.13 ± 0.26 | R -0.851 ± 0.087 | E -0.726 ± 0.2 | G -0.682 ± 0.078 | Q -0.869 ± 0.15 | L -0.719 ± 0.072 | S -0.728 ± 0.071 | M -0.786 ± 0.15 | P -0.972 ± 0.24 | T -0.817 ± 0.15 | H -0.874 ± 0.28
Y27: C -0.874 ± 0.26 | T -0.855 ± 0.17 | P -0.866 ± 0.17 | V -0.996 ± 0.15 | I -0.287 ± 0.42 | S -0.861 ± 0.12 | L -0.849 ± 0.11 | F -0.579 ± 0.11 | W 0.079 ± 0.087 | M -0.597 ± 0.28 | G -0.891 ± 0.12 | R -0.85 ± 0.14
E24: H -0.193 ± 0.22 | D 0.062 ± 0.12 | A -0.099 ± 0.085 | P -0.246 ± 0.12 | T -0.579 ± 0.47 | S -0.254 ± 0.084 | C -0.588 ± 0.25 | Q 0.041 ± 0.15 | W -0.422 ± 0.14 | L -0.715 ± 0.19 | R -0.417 ± 0.075 | V -0.505 ± 0.12
